From PMC7968997
Numbering of substitutions follows the chain as printed.

Columns and labels:
Experiment in all cases: fluorescence polarization
RRM2 analog Y165A = biological target: T1, RRM2 analog Y165A (Homo sapiens, UniProt Q8IUH3 23-202, F29A;F70A;Y165A)
T1 sequence: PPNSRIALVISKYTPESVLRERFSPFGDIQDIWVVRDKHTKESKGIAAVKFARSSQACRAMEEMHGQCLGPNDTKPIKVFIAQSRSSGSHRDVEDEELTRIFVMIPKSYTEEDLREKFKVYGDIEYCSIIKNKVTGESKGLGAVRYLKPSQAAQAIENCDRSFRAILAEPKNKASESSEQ

RBM45 RRM1-2 WT = biological target: T2, RBM45 RRM1-2 WT (Homo sapiens, UniProt Q8IUH3 23-202)
T2 sequence: T1 sequence with A7F, A48F, A143Y

[1] = biological target: T3, RBM45 RRM1-2 F29A/F70A (RRM2 analog) (Homo sapiens, UniProt Q8IUH3 23-202, F29A;F70A)
T3 sequence: T1 sequence with A143Y

RRM1 analog R27A = biological target: T4, RRM1 analog R27A (Homo sapiens, UniProt Q8IUH3 23-202, R27A;F124A;Y165A)
T4 sequence: T1 sequence with R5A, A7F, A48F, F102A

RRM1 analog D53A = biological target: T5, RRM1 analog D53A (Homo sapiens, UniProt Q8IUH3 23-202, D53A;F124A;Y165A)
T5 sequence: T1 sequence with A7F, D31A, A48F, F102A

RRM2 analog R122A = biological target: T6, RRM2 analog R122A (Homo sapiens, UniProt Q8IUH3 23-202, F29A;F70A;R122A)
T6 sequence: T1 sequence with R100A, A143Y

GGACGG (ssRNA) [GGACGG RNA] gave a Kd (RRM2 analog Y165A) of 20.4 µM, a Kd (RBM45 RRM1-2 WT) of 0.457 ± 0.053 µM and a Kd [1] of 1.48 ± 0.11 µM. For the same binder, the Kd (RRM1 analog R27A) was 14.4 µM, the Kd (RRM1 analog D53A) was 1.99 µM and the Kd (RRM2 analog R122A) was 18.7 µM.
